B1: ZNF207 (parent)
chain: CHICHKKLYTGPGLAIHCMQVHKE
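Also: lentivirally expressed fusions sorted by FACS into six bins by GFP to DsRed ratio, PSI derived from sequencing read proportions per bin multiplied by bin number.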

The variants in the data set derive from B1. Briefly: protein stability index of a GFP-peptide fusion (GPS, HEK-293T) (PSI 1-6); higher = more stable. Particulars: c terminus: a fixed tail appended.
Consider CHICHKKLRTGPGLAIHCMQVHKE [Y9R], for which the protein stability index was 4.11.
For the variant CHICHKKLTTGPGLAIHCMQVHKE [Y9T], the protein stability index came out at 3.27.
For CHICHKKLKTGPGLAIHCMQVHKE [Y9K], the protein stability index came to 3.29.
Consider CHICHKKLMTGPGLAIHCMQVHKE [Y9M], for which the protein stability index amounted to 4.14.
Take CHICHKKLETGPGLAIHCMQVHKE [Y9E]: the protein stability index worked out at 4.6.
With CHICHKKLVTGPGLAIHCMQVHKE [Y9V], the protein stability index was 3.19.
With CHICHKKLYEGPGLAIHCMQVHKE [T10E] the figure was 3.83.
Turning to CHICHKKLYRGPGLAIHCMQVHKE [T10R], the protein stability index worked out at 2.52.
For CHICHKKLYAGPGLAIHCMQVHKE [T10A], the protein stability index is 3.47.
In the case of CHICHKKLYPGPGLAIHCMQVHKE [T10P], the protein stability index was 3.68.
With CHICHKKLYNGPGLAIHCMQVHKE [T10N], the protein stability index turned out to be 3.58.
Take CHICHKKLYIGPGLAIHCMQVHKE [T10I]: the protein stability index is 2.86.
As for CHICHKKLYQGPGLAIHCMQVHKE [T10Q], the protein stability index came out at 3.8.
As for CHICHKKLYVGPGLAIHCMQVHKE [T10V], the protein stability index was 3.5.
Under CHICHKKLYWGPGLAIHCMQVHKE [T10W] stands 2.56; under CHICHKKLYLGPGLAIHCMQVHKE [T10L], 2.49; under CHICHKKLYFGPGLAIHCMQVHKE [T10F], 2.4.
CHICHKKLYCGPGLAIHCMQVHKE [T10C]: the protein stability index is 2.92.
Under CHICHKKLYSGPGLAIHCMQVHKE [T10S] stands 3.31; under CHICHKKLYYGPGLAIHCMQVHKE [T10Y], 2.6.
Turning to CHICHKKLYGGPGLAIHCMQVHKE [T10G], the protein stability index amounted to 3.06.
For the variant CHICHKKLYDGPGLAIHCMQVHKE [T10D], the protein stability index was found to be 4.59.
Under CHICHKKLYMGPGLAIHCMQVHKE [T10M] stands 2.55.
With CHICHKKLYKGPGLAIHCMQVHKE [T10K] the figure was 2.65.
With CHICHKKLYHGPGLAIHCMQVHKE [T10H] the figure was 2.68; with CHICHKKLYTGPELAIHCMQVHKE [G13E], 4.3; with CHICHKKLYTGPRLAIHCMQVHKE [G13R], 2.41.
In the case of CHICHKKLYTGPPLAIHCMQVHKE [G13P], the protein stability index came out at 2.43.
On to CHICHKKLYTGPHLAIHCMQVHKE [G13H], for which the protein stability index came to 4.02.
For the variant CHICHKKLYTGPNLAIHCMQVHKE [G13N], the protein stability index was determined as 3.77.
As to CHICHKKLYTGPILAIHCMQVHKE [G13I], the protein stability index amounted to 2.3.
Consider CHICHKKLYTGPSLAIHCMQVHKE [G13S], for which the protein stability index turned out to be 3.83.
With CHICHKKLYTGPQLAIHCMQVHKE [G13Q] the figure was 4.07.
Take CHICHKKLYTGPDLAIHCMQVHKE [G13D]: the protein stability index was 4.82.
As to CHICHKKLYTGPMLAIHCMQVHKE [G13M], the protein stability index was 3.64.
CHICHKKLYTGPLLAIHCMQVHKE [G13L]: the protein stability index was 2.9.
Under CHICHKKLYTGPTLAIHCMQVHKE [G13T] stands 3.37; under CHICHKKLYTGPKLAIHCMQVHKE [G13K], 3.15; under CHICHKKLYTGPALAIHCMQVHKE [G13A], 4.96.
On to CHICHKKLYTGPCLAIHCMQVHKE [G13C], for which the protein stability index turned out to be 3.65.
Under CHICHKKLYTGPWLAIHCMQVHKE [G13W] stands 2.07; under CHICHKKLYTGPFLAIHCMQVHKE [G13F], 2.11.
For the variant CHICHKKLYTGPYLAIHCMQVHKE [G13Y], the protein stability index was 2.12.
As for CHICHKKLYTGPVLAIHCMQVHKE [G13V], the protein stability index came to 2.54.
As for CHICHKKLYTGPGLALHCMQVHKE [I16L], the protein stability index was determined as 3.01.
Consider CHICHKKLYTGPGLASHCMQVHKE [I16S], for which the protein stability index was 3.72.
With CHICHKKLYTGPGLAEHCMQVHKE [I16E], the protein stability index was 4.77.
With CHICHKKLYTGPGLATHCMQVHKE [I16T] the figure was 3.82; with CHICHKKLYTGPGLAWHCMQVHKE [I16W], 3.16; with CHICHKKLYTGPGLAHHCMQVHKE [I16H], 4.39.
With CHICHKKLYTGPGLARHCMQVHKE [I16R] the figure was 2.71; with CHICHKKLYTGPGLAVHCMQVHKE [I16V], 3.81; with CHICHKKLYTGPGLAMHCMQVHKE [I16M], 3.45.
On to CHICHKKLYTGPGLAFHCMQVHKE [I16F], for which the protein stability index was 3.83.
As for CHICHKKLYTGPGLAAHCMQVHKE [I16A], the protein stability index was determined as 3.54.
Under CHICHKKLYTGPGLANHCMQVHKE [I16N] stands 3.71; under CHICHKKLYTGPGLAYHCMQVHKE [I16Y], 3.02; under CHICHKKLYTGPGLAPHCMQVHKE [I16P], 3.97.
Turning to CHICHKKLYTGPGLAQHCMQVHKE [I16Q], the protein stability index is 3.9.
Under CHICHKKLYTGPGLADHCMQVHKE [I16D] stands 4.71; under CHICHKKLYTGPGLAKHCMQVHKE [I16K], 3.23; under CHICHKKLYTGPGLACHCMQVHKE [I16C], 4.33.
On to CHICHKKLYTGPGLAGHCMQVHKE [I16G], for which the protein stability index was determined as 4.1.
Take CHICHKKLYTGPGLQIHCMQVHKE [A15Q]: the protein stability index was determined as 3.7.
On to CHICHKKLYTGPGLLIHCMQVHKE [A15L], for which the protein stability index amounted to 2.66.
Consider CHICHKKLYTGPGLYIHCMQVHKE [A15Y], for which the protein stability index amounted to 3.21.
CHICHKKLYTGPGLEIHCMQVHKE [A15E]: the protein stability index amounted to 3.55.
Regarding CHICHKKLYTGPGLNIHCMQVHKE [A15N], the protein stability index was 3.7.
In the case of CHICHKKLYTGPGLMIHCMQVHKE [A15M], the protein stability index came out at 3.35.
Turning to CHICHKKLYTGPGLGIHCMQVHKE [A15G], the protein stability index amounted to 4.44.
For CHICHKKLYTGPGLVIHCMQVHKE [A15V], the protein stability index was 2.35.
On to CHICHKKLYTGPGLPIHCMQVHKE [A15P], for which the protein stability index turned out to be 3.24.
Consider CHICHKKLYTGPGLIIHCMQVHKE [A15I], for which the protein stability index was found to be 2.79.
Under CHICHKKLYTGPGLWIHCMQVHKE [A15W] stands 2.27; under CHICHKKLYTGPGLFIHCMQVHKE [A15F], 2.91.
Under CHICHKKLYTGPGLTIHCMQVHKE [A15T] stands 3.69; under CHICHKKLYTGPGLKIHCMQVHKE [A15K], 3.38.
As for CHICHKKLYTGPGLRIHCMQVHKE [A15R], the protein stability index worked out at 3.19.
With CHICHKKLYTGPGLSIHCMQVHKE [A15S], the protein stability index was 3.42.
Consider CHICHKKLYTGPGLHIHCMQVHKE [A15H], for which the protein stability index was found to be 2.99.
In the case of CHICHKKLYTGPGLCIHCMQVHKE [A15C], the protein stability index stood at 4.64.
As for CHICHKKLYTGPGLDIHCMQVHKE [A15D], the protein stability index stood at 4.37.
Turning to CHICHKKQYTGPGLAIHCMQVHKE [L8Q], the protein stability index is 2.93.
Take CHICHKKSYTGPGLAIHCMQVHKE [L8S]: the protein stability index was determined as 2.57.
For the variant CHICHKKRYTGPGLAIHCMQVHKE [L8R], the protein stability index is 1.37.
On to CHICHKKIYTGPGLAIHCMQVHKE [L8I], for which the protein stability index came out at 3.67.
CHICHKKNYTGPGLAIHCMQVHKE [L8N]: the protein stability index is 2.97.
On to CHICHKKTYTGPGLAIHCMQVHKE [L8T], for which the protein stability index stood at 3.02.
In the case of CHICHKKVYTGPGLAIHCMQVHKE [L8V], the protein stability index stood at 4.12.
In the case of CHICHKKPYTGPGLAIHCMQVHKE [L8P], the protein stability index worked out at 3.1.
CHICHKKKYTGPGLAIHCMQVHKE [L8K]: the protein stability index is 2.42.
Consider CHICHKKMYTGPGLAIHCMQVHKE [L8M], for which the protein stability index worked out at 4.63.
Consider CHICHKKWYTGPGLAIHCMQVHKE [L8W], for which the protein stability index stood at 2.66.
Regarding CHICHKKYYTGPGLAIHCMQVHKE [L8Y], the protein stability index was found to be 2.33.

The values are drawn from the supplement of paper PMC10567573.
